T1: recombinant human activated Factor VII (FVIIa) (human, UniProt P08709 61-212; P08709 213-466, ten glutamate residues of the Gla domain may be gamma-carboxylated)
T1 construct: chains tethered by a disulfide bond; also called Factor VIIa; rFVIIa
T1 sequence 1: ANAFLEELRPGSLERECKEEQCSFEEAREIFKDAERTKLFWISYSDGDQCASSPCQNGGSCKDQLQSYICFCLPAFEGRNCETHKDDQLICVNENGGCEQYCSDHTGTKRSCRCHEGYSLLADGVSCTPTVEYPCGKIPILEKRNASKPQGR
T1 sequence 2: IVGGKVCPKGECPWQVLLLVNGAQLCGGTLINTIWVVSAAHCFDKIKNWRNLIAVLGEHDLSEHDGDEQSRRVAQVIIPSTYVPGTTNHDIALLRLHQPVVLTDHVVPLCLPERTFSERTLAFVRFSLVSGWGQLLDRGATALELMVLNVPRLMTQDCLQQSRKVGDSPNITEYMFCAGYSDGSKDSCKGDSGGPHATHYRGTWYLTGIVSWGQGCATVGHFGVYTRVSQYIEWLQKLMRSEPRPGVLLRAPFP

B1: VH SEQ ID NO 570 / VL SEQ ID NO 422 (antibody, IgG4, V domains shown)
VH: QVQLQESGPGLVKPSDTLSLTCAVSGYSISSDSAWSWIRQPPGKGLEWIGYIQYSGSTNYNPSLKSRVTMSRDTSKNQFSLKLSSVTAADTAVYYCARSVNYYGNSFAVGPWGQGTLVTVSS
VL: EIVLTQSPATLSLSPGERATLSCRASQGVSDYLAWYQQKPGQAPRLLIKYASQPATGIPARFSGSGSGTDFTLTISSLEPEDFAVYYCQQGHSFPLTFGQGTKLEIK
notes: humanized 11F2; IgG4 S228P/kappa
B2: VH SEQ ID NO 570 / VL SEQ ID NO 502 (antibody, IgG4, V domains shown)
VH: B1 VH
VL: B1 VL with A34H, A51T, Q90N
notes: as for B1
B3: VH SEQ ID NO 578 / VL SEQ ID NO 318 (antibody, IgG4, V domains shown)
VH: B1 VH with R72V, A89L
VL: B1 VL with V29I, A34H, Q42E, A51T, Q90N
notes: as for B1
B4: VH SEQ ID NO 570 / VL SEQ ID NO 478 (antibody, IgG4, V domains shown)
VH: B1 VH
VL: B1 VL with A34H
notes: as for B1
B5: VH SEQ ID NO 578 / VL SEQ ID NO 382 (antibody, IgG4, V domains shown)
VH: B1 VH with R72V, A89L
VL: B1 VL with V29L, A34H, Q42E, Q90N
notes: as for B1
B6: VH SEQ ID NO 586 / VL SEQ ID NO 334 (antibody, IgG4, V domains shown)
VH: B1 VH with R72V, A89L, P111Y
VL: B1 VL with V29I, A34H, Q90N
notes: as for B1
B7: VH SEQ ID NO 578 / VL SEQ ID NO 326 (antibody, IgG4, V domains shown)
VH: B1 VH with R72V, A89L
VL: B1 VL with V29I, A34H, Q42E, A51T, A84G, Q90N, Q100A, I106L
notes: as for B1
B8: VH SEQ ID NO 578 / VL SEQ ID NO 486 (antibody, IgG4, V domains shown)
VH: B1 VH with R72V, A89L
VL: B1 VL with A34H, A84G, Q90N
notes: as for B1
B9: VH SEQ ID NO 578 / VL SEQ ID NO 430 (antibody, IgG4, V domains shown)
VH: B1 VH with R72V, A89L
VL: B1 VL with A84G, Q90N
notes: as for B1
B10: VH SEQ ID NO 570 / VL SEQ ID NO 446 (antibody, IgG4, V domains shown)
VH: B1 VH
VL: B1 VL with A51T, Q90N
notes: as for B1
B11: VH SEQ ID NO 578 / VL SEQ ID NO 502 (antibody, IgG4, V domains shown)
VH: B1 VH with R72V, A89L
VL: B1 VL with A34H, A51T, Q90N
notes: as for B1
B12: VH SEQ ID NO 578 / VL SEQ ID NO 350 (antibody, IgG4, V domains shown)
VH: B1 VH with R72V, A89L
VL: B1 VL with V29I, A34H, A51T, Q90N, Q100A, I106L
notes: as for B1
B13: VH SEQ ID NO 586 / VL SEQ ID NO 326 (antibody, IgG4, V domains shown)
VH: B1 VH with R72V, A89L, P111Y
VL: B1 VL with V29I, A34H, Q42E, A51T, A84G, Q90N, Q100A, I106L
notes: as for B1
B14: VH SEQ ID NO 586 / VL SEQ ID NO 358 (antibody, IgG4, V domains shown)
VH: B1 VH with R72V, A89L, P111Y
VL: B1 VL with V29I, A34H, A51T, Q90N
notes: as for B1
B15: VH SEQ ID NO 578 / VL SEQ ID NO 478 (antibody, IgG4, V domains shown)
VH: B1 VH with R72V, A89L
VL: B1 VL with A34H
notes: as for B1
B16: VH SEQ ID NO 578 / VL SEQ ID NO 358 (antibody, IgG4, V domains shown)
VH: B1 VH with R72V, A89L
VL: B1 VL with V29I, A34H, A51T, Q90N
notes: as for B1
B17: VH SEQ ID NO 586 / VL SEQ ID NO 310 (antibody, IgG4, V domains shown)
VH: B1 VH with R72V, A89L, P111Y
VL: B1 VL with V29I, Q90N
notes: as for B1
B18: VH SEQ ID NO 570 / VL SEQ ID NO 494 (antibody, IgG4, V domains shown)
VH: B1 VH
VL: B1 VL with A34H, F83V, Q90N
notes: as for B1
B19: VH SEQ ID NO 578 / VL SEQ ID NO 454 (antibody, IgG4, V domains shown)
VH: B1 VH with R72V, A89L
VL: B1 VL with A34H, Q42E, Q90N
notes: as for B1
B20: VH SEQ ID NO 570 / VL SEQ ID NO 486 (antibody, IgG4, V domains shown)
VH: B1 VH
VL: B1 VL with A34H, A84G, Q90N
notes: as for B1
B21: VH SEQ ID NO 578 / VL SEQ ID NO 334 (antibody, IgG4, V domains shown)
VH: B1 VH with R72V, A89L
VL: B1 VL with V29I, A34H, Q90N
notes: as for B1
B22: VH SEQ ID NO 578 / VL SEQ ID NO 342 (antibody, IgG4, V domains shown)
VH: B1 VH with R72V, A89L
VL: B1 VL with V29I, A34H, A51T, T69R, Q90N, Q100A, I106L
notes: as for B1
B23: VH SEQ ID NO 586 / VL SEQ ID NO 342 (antibody, IgG4, V domains shown)
VH: B1 VH with R72V, A89L, P111Y
VL: B1 VL with V29I, A34H, A51T, T69R, Q90N, Q100A, I106L
notes: as for B1
B24: VH SEQ ID NO 586 / VL SEQ ID NO 318 (antibody, IgG4, V domains shown)
VH: B1 VH with R72V, A89L, P111Y
VL: B1 VL with V29I, A34H, Q42E, A51T, Q90N
notes: as for B1
B25: VH SEQ ID NO 570 / VL SEQ ID NO 462 (antibody, IgG4, V domains shown)
VH: B1 VH
VL: B1 VL with A34H, Q90N, Q100A
notes: as for B1
B26: VH SEQ ID NO 570 / VL SEQ ID NO 454 (antibody, IgG4, V domains shown)
VH: B1 VH
VL: B1 VL with A34H, Q42E, Q90N
notes: as for B1
B27: VH SEQ ID NO 578 / VL SEQ ID NO 470 (antibody, IgG4, V domains shown)
VH: B1 VH with R72V, A89L
VL: B1 VL with A34H, Q90N
notes: as for B1
B28: VH SEQ ID NO 570 / VL SEQ ID NO 470 (antibody, IgG4, V domains shown)
VH: B1 VH
VL: B1 VL with A34H, Q90N
notes: as for B1
B29: VH SEQ ID NO 578 / VL SEQ ID NO 494 (antibody, IgG4, V domains shown)
VH: B1 VH with R72V, A89L
VL: B1 VL with A34H, F83V, Q90N
notes: as for B1
B30: VH SEQ ID NO 586 / VL SEQ ID NO 350 (antibody, IgG4, V domains shown)
VH: B1 VH with R72V, A89L, P111Y
VL: B1 VL with V29I, A34H, A51T, Q90N, Q100A, I106L
notes: as for B1
B31: VH SEQ ID NO 570 / VL SEQ ID NO 430 (antibody, IgG4, V domains shown)
VH: B1 VH
VL: B1 VL with A84G, Q90N
notes: as for B1
B32: VH SEQ ID NO 570 / VL SEQ ID NO 438 (antibody, IgG4, V domains shown)
VH: B1 VH
VL: B1 VL with F83V, Q90N
notes: as for B1
B33: VH SEQ ID NO 578 / VL SEQ ID NO 462 (antibody, IgG4, V domains shown)
VH: B1 VH with R72V, A89L
VL: B1 VL with A34H, Q90N, Q100A
notes: as for B1

Numbering of substitutions follows the chain as printed. Numbers in names are those of the source.

The experiment concerns the target T1, recombinant human activated Factor VII …. As to the kind of experiment: BLI (Fortebio). A general note: Biolayer interferometry detects binding as a change in optical thickness at a sensor tip.
Regarding B1, the Kd (in general, the equilibrium constant for the complex coming apart) stood at 2400 nM. The figure for B2 is 0.92 nM; for B3 it is 17 nM. The figure for B4 is 1.9 nM; for B5 it is 30 nM; for B6 it is 13 nM. In the case of B7 it was 16 nM; in that of B8, 23 nM; in that of B9, 820 nM. Take B10: the Kd was found to be 24 nM. The figure for B11 is 24 nM; for B12 it is 21 nM. Regarding B13, the Kd was 9.9 nM.

As for B14, the Kd worked out at 11 nM. In the case of B15 it was 310 nM; in that of B16, 19 nM; in that of B17, 1500 nM. In the case of B18 it was 1.1 nM; in that of B19, 25 nM. With B20, the Kd is 0.99 nM.

Regarding B21, the Kd is 22 nM. In the case of B22 it was 43 nM; in that of B23, 18 nM; in that of B24, 9.8 nM. In the case of B25 it was 1.1 nM; in that of B26, 1.1 nM; in that of B27, 25 nM. The figure for B28 is 1.1 nM; for B29 it is 28 nM; for B30 it is 12 nM.

B31: the Kd worked out at 16 nM. The figure for B32 is 210 nM. In the case of B33 it was 27 nM.
